Numbering of substitutions follows the chain as printed. One block for each binder: values may come before it.
Tests used:
[1] = target: T1, Recombinant soluble human OX40L fused to a Histidine tag (human, UniProt P23510 51-183); test: SPR competition; hOX40L-His (10 nM) preincubated with antibody (0.78-100 nM), injected over immobilized OX40-hFc; native hOX40L-His (10 nM) preincubated with the antibody in solution, competition for immobilized OX40-hFc
T1 construct: extracellular domain; there it was reduced and LDS-denatured; also called hOX40L-His; hOx40L-His; not shown: Histidine tag
T1 sequence (looked up): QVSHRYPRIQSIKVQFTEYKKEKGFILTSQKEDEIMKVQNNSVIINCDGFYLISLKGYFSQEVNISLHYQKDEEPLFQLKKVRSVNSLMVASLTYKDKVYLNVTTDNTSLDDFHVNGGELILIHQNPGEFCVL
Protocol: Instrument: Biacore 3000, running and reaction buffer: HBS-P (10 mM HEPES, 150 mM NaCl, 0.005% Tween 20, ph 7.4), 25° C. Prior to injection the analyte (10 nM) and competitor (eight concentrations between 0.78 nM and 100 nM) were preincubated for at least 20 min at 22° C. Injection of analyte+/−competitor was performed for 3 minutes and washed with HBS-P for three minutes. Regeneration of the surface was performed by two injections of 10 mM Glycine pH 2.0 for 1 min each. The chip, assay format and sequence of injections and kinetic data correspond to the description in the following table 3.

[2] = target: T2, human OX40L expressed on cells (K562-hOX40L cells; HUVEC) (human, UniProt P23510 1-183); test: cell-based or functional assay
T2 sequence (looked up): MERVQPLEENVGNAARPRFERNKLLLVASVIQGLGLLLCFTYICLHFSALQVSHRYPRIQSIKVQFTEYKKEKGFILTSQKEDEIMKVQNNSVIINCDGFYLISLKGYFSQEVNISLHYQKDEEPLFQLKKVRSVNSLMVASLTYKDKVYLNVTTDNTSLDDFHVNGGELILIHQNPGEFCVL

[3] = target: T1, Recombinant soluble human OX40L fused …; test: SPR, Biacore 3000; antibody captured via anti-Fcγ on CM5, hOX40L-His as analyte, 1:1 Langmuir fit; native hOX40L-His as analyte in SPR, antibody captured via Anti-hFcg, HBS-P pH 7.4, 25 C
Protocol: (§1) Instrument: Biacore 3000, running and reaction buffer: HBS-P (10 mM HEPES, 150 mM NaCl, 0.005% Tween 20, ph 7.4), 25° C. Injection of analyte was performed at 7 concentrations between 0.78 nM and 100 nM for 3 minutes and washed with HBS-P for 5 minutes. Regeneration of the surface (carboxymethylated dextrane surface, CM) was performed by two injections of 10 mM Glycine pH 2.0 for 1 min each. The chip, assay format and sequence of injections and kinetic data correspond to the description in the following table. Kinetic data were calculated by fitting kinetic data to a 1:1 Langmuir binding model.

[4] = target: T1, Recombinant soluble human OX40L fused …; test: SPR, Biacore 3000; antibody captured via anti-Fcγ on CM5, hOX40L-His as analyte, 1:1 Langmuir fit
Protocol: as §1

IC50 [1]: 3 nM | IC50, IL-2 release of PHA-activated PBL co-stimulated with K562_OX40L cells [2]: 10 nM | Kd [3]: < 0.015 nM | koff [3]: < 1e-06 s⁻¹ | kon [3]: 68400 M⁻¹ s⁻¹
B1: Human anti-human OX40L monoclonal antibody LC.005 (antibody, IgG1, V domains shown)
VH: QVQLVESGGGVVQPGRSLRLSCAASGFTFSNFGMHWVRQAPGKGLEWVAAIWYDGHDKYYSYYVKGRFTISRDNSKNTLFLQMNSLRAEDTAVYYCARDSSSWYRYFDYWGQGTLVTVSS
VL: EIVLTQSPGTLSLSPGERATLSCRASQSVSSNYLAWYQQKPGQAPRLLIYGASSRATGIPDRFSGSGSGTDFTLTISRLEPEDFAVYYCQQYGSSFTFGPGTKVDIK
notes: also called LC2010-005; hu-Mab<hOX40L>LC.005

Kd [4]: 0.399 nM | koff [4]: 2.5e-05 s⁻¹ | kon [4]: 62500 M⁻¹ s⁻¹
B2: Human anti-human OX40L monoclonal antibody LC.010 (antibody, IgG1, V domains shown)
VH: B1 VH with S61A
VL: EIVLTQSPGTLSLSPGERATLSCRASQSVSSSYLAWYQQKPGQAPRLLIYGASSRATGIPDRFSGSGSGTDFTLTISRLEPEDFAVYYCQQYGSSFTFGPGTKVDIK
notes: also called LC2010-010; hu-Mab<hOX40L>LC.010

Kd [4]: < 0.014 nM | koff [4]: 2.09e-07 s⁻¹ | kon [4]: 70100 M⁻¹ s⁻¹
B3: Human anti-human OX40L monoclonal antibody LC.033 (antibody, V domains shown)
VH: QKQLVEFGGGVVQPGRSLRLSCAASGFTFSNYGMHWVRQAPGKGLEWVAVIWNDGSNKYYVDSVKGRFIISRDNSKNTLYLQMNSLRAEDTAVYYCARDRMGIYYYGMDVWGQGTTVTVSS
VL: EIVLTQSPATLSLSPGERATLSCRASQGVSRYLAWYQQKPGQAPRLLIYDASNRATGIPARVSGSGPGTDFTLTISSLEPEDFAVDYCQQRSNWQYTFGQGTKLEI
notes: also called LC2010-033; hu-Mab<hOX40L>LC.033
